The values that follow come from the DeepSol protein solubility set.

The data set can be described thus: soluble on expression in E. coli; label from the status in PepcDB or PDB records.
Regarding “SMDEVVRIHSSSGTTGKPTVVGYTKHDMEVWGEVMARTFTLAGVTAKDVVHNAYGYGLFTGGLGFHDGAQRVGATIIPASGGFTNRQIMLLRDFKATALTCTPSFAMHLAEVAKSEGFDPRKDFHLKAGIFGAEPSSEGLQRAVADTWGIAYHEIYGLSELIGPGVSCSCEQ”, the “soluble on expression in E. coli” value is reported as “not soluble”.
Next, “SMGAEPGRPARLDQLLDMPAAGLAVQLRHAWNPEDRSLNVFVKDDDRLTFHRHPVAQSTDGIRGKVGHARGLHAWQINWPARQRGTHAVVGVATARAPLHSVGYTALVGSDAESWGWDLGRSRLYHDGKNQPGVAYPAFLGPDEAFALPDSLLVVLDMDEGTLSFIVDGQYLGVAFRGLKGKKLYPVVSAVWGHCEVTMRYINGLDPE”: “soluble”; “SMGKEKSKEPRDPDQLYSTLKSILQQVKSHQSAWPFMEPVKRTEAPGYYEVIRFPMDLKTMSERLKNRYYVSKKLFMADLQRVFTNCKEYNPPESEYYKCANILEKFFFSKIKEAGLID”: “soluble”; “SMPKDVGILALEVYFPAQYVDQTDLEKYNNVEAGKYTVGLGQTRMGFCSVQEDINSLCLTVVQRLMERIQLPWDSVGRLEVGTETIIDKSKAVKTVLMELFQDSGNTDIEGIDTTNACYGGTASLFNAANWMESSSWDGRYAMVVCGDIAVYPSGNARPTGGAGAVAMLIGPKAPLALERGLRGTHMENVYDFYKPNLASEYPIVDGKLSIQCYLRALDRCYTSYRKKIQNQWKQAGSDRPFTLDDLQYMIFHTPFCKMVQKSLARLMFNDFLSASSDTQTSLYKGLEAFGGLKLEDTYTNKDLDKALLKASQDMFDKKTKASLYLSTHNGNMYTSSLYGCLASLLSHHSAQELAGSRIGAFSYGSGLAASFFSFRVSQDAAPGSPLDKLVSSTSDLPKRLASRKCVSPEEFTEIMNQREQFYHKVNFSPPGDTNSLFPGTWYLERVDEQHRRKYARRPV”: “soluble”.
As to “SMPSQQRVKRWGFSFDEILKDQVGRDQFLRFLESEFSSENLRFWLAVQDLKKQPLQDVAKRVEEIWQEFLAPGAPSAINLDSHSYEITSQNVKDGGRYTFEDAQEHIYKLMKSDSYARFLRSNAYQDLLLAKKKGKSLAGKRLTGLMQ”, the “soluble on expression in E. coli” value is “soluble”.
“SMQAARLAKALRELGQTGWYWGSMTVNEAKEKLKEAPEGTFLIRDSSHSDYLLTISVKTSAGPTNLRIEYQDGKFRLDSIICVKSKLKQFDSVVHLIDYYVQMCKDKRTGPEAPRNGTVHLYLTKPLYTSAPSLQHLCRLTINKCTGAIWGLPLPTRLKDYLEEYKFQV”: the “soluble on expression in E. coli” value was “soluble”.
In the case of “SMSTKGTILVTGGAGYIGSHTAVELLAHGYDVVIADNLVNSKREAIARIEKITGKTPAFHETDVSDERALARIFDAHPITAAIHFAALKAVGESVAKPIEYYRNNLDSLLSLLRVMRERAVKRIVFSSSATVYGVPERSPIDETFPLSATNPYGQTKLMAEQILRDVEAADPSWRVATLRYFNPVGAHESGLIGEDPAGIPNNLMPYVAQVAVGKLEKLRVFGSDYPTPDGTGVRDYIHVVDLARGHIAALDALERRDASLTVNLGTGRGYSVLEVVRAFEKASGRAVPYELVARRPGDVAECYANPAAAAETIGWKAERDLERMCADHWRWQENNPRGFV”, the “soluble on expression in E. coli” value is listed as “soluble”.
In the case of “SMSVKKPKRDDSKDLALCSMILTEMETHEDAWPFLLPVNLKLVPGYKKVIKKPMDFSTIREKLSSGQYPNLETFALDVRLVFDNCETFNEDDSDIGRAGHNMRKYFEKKWTDTFKVS”, the “soluble on expression in E. coli” value is listed as “soluble”.
Take “SMTTNVGDSTLADLLDHSCTSGSGSGLPFLVQRTVARQITLLECVGKGRYGEVWRGSWQGENVAVKIFSSRDEKSWFRETELYNTVMLRHENILGFIASDMTSRHSSTQLWLITHYHEMGSLYDYLQLTTLDTVSCLRIVLSIASGLAHLHIEIFGTQGKPAIAHRDLKSKNILVKKNGQCCIADLGLAVMHSQSTNQLDVGNNPRVGTKRYMAPEVLDETIQVDCFDSYKRVDIWAFGLVLWEVARRMVSNGIVEDYKPPFYDVVPNDPSFEDMRKVVCVDQQRPNIPNRWFSDPTLTSLAKLMKECWYQNPSARLTALRIKKTLTKID”: the “soluble on expression in E. coli” value is “soluble”.
As to “SMVSPEEAVKWGESFDKLLSHRDGLEAFTRFLKTEFSEENIEFWIACEDFKKSKGPQQIHLKAKAIYEKFIQTDAPKEVNLDFHTKEVITNSITQPTLHSFDAAQSRVYQLMEQDSYTRFLKSDIYLDLMEGRPQRPTNLRRRSRSFTCNE”, the “soluble on expression in E. coli” value is “soluble”.
Consider “SNADDMIILKGVNIFPIQIETILLQFKELGSDYLITLETAESNDEMTVEVELSQLFTDDYGRLQALTREITRQLKDEILVTPRVKLVPKGALPKSEGKAVRVKDLRKTF”, for which the “soluble on expression in E. coli” value is on record as “soluble”.
Take “SNAIFMDYYENRKVMAEAQNIYEKSPMEEQSQDGEVRKQFKALQQINQEIVGWITMDDTQINYPIVQAKDNDYYLFRNYKGEDMRAGSIFMDYRNDVKSQNRNTILYGHRMKDGSMFGSLKKMLDEEFFMSHRKLYYDTLFEGYDLEVFSVYTTTTDFYYIETDFSSDTEYTSFLEKIQEKSLYKTDTTVTAGDQIVTLSTCDYALDPEAGRLVVHAKLVKRQ”: the “soluble on expression in E. coli” value is recorded as “soluble”.
For the sequence “SNAMENQKMQEPLVYRRILLTVDEDDNTSSERAFRYATTLAHDYDVPLGICSVLESEDINIFDSLTPSKIQAKRKHVEDVVAEYVQLAEQRGVNQVEPLVYEGGDVDDVILEQVIPEFKPDLLVTGADTEFPHSKIAGAIGPRLARKAPISVIVVR”, the “soluble on expression in E. coli” value is reported as “soluble”.
As for “SNAMPQQKNFVTMPAQHQNKQPGIESLMNPLPQFEDPNYKGSEKLKGKNVLITGGDSGIGRAVSIAFAKEGANIAIAYLDEEGDANETKQYVEKEGVKCVLLPGDLSDEQHCKDIVQETVRQLGSLNILVNNVAQQYPQQGLEYITAEQLEKTFRINIFSYFHVTKAALSHLKQGDVIINTASIVAYEGNETLIDYSATKGAIVAFTRSLSQSLVQKGIRVNGVAPGPIWTPLIPSSFDEKKVSQFGSNVPMQRPGQPYELAPAYVYLASSDSSYVTGQMIHVNGGVIVNG”, the “soluble on expression in E. coli” value is given as “soluble”.
Next, “SNAMSKRVLMVVTNHTTITDDHKTGLWLEEFAVPYLVFQEKGYDVKVASIQGGEVPLDPRSINEKDPSWAEAEAALKHTARLSKDDAHGFDAIFLPGGHGTMFDFPDNETLQYVLQQFAEDGRIIAAVCHGPSGLVNATYKDGTPIVKGKTVTSFTDEEEREVGLDVHMPFLLESTLRLRGANFVRGGKWTDFSVRDGNLITGQNPQSSRSTAEKVVAALEERE”: “soluble”.
Regarding “SNAMSLEMFDKEIFDLTNKELERQCEGLEMIASENFTLPEVMEVMGSILTNKYAEGYPGKRYYGGCEFVDEIETLAIERCKKLFNCKFANVQPNSGSQANQGVYAALINPGDKILGMDLSHGGHLTHGAKVSSSGKMYESCFYGVELDGRIDYEKVREIAKKEKPKLIVCGASAYARVIDFAKFREIADEIGAYLFADIAHIAGLVVAGEHPSPFPYAHVVSSTTHKTLRGPRGGIIMTNDEELAKKINSAIFPGIQGGPLMHVIAAKAVGFKFNLSDEWKVYAKQVRTNAQVLANVLMDRKFKLVSDGTDNHLVLMSFLDREFSGKDADLALGNAGITANKNTVPGEIRSPFITSGLRLGTPALTARGFKEKEMEIVSNYIADILDDVNNEKLQENIKQELKKLASNFIIYERAMF”, the “soluble on expression in E. coli” value is “soluble”.
As to “SNAMTIRFADKADCAAITEIYNHAVLHTAAIWNDRTVDTDNRLAWYEARQLLGYPVLVSEENGVVTGYASFGDWRSFDGFRYTVEHSVYVHPAHQGKGLGRKLLSRLIDEARRCGKHVMVAGIESQNAASIRLHHSLGFTVTAQMPQVGVKFGRWLDLTFMQLQLDEHAAPDAC”, the “soluble on expression in E. coli” value is recorded as “soluble”.
Next, “SNAMTKPMIQIALDQTNLTDAVAVASNVASYVDVIEVGTILAFAEGMKAVSTLRHNHPNHILVCDMKTTDGGAILSRMAFEAGADWITVSAAAHIATIAACKKVADELNGEIQIEIYGNWTMQDAKAWVDLGITQAIYHRSRDAELAGIGWTTDDLDKMRQLSALGIELSITGGIVPEDIYLFEGIKTKTFIAGRALAGAEGQQTAAALREQIDRFWP”: “soluble”.
Consider “SNAMTQFAFVFPGQGSQSVGMLAEMAANYPIVEETFAEASAALGYDLWALTQQGPAEELNKTWQTQPALLTASVALWRVWQQQGGKMPALMAGHSLGEYSALVCAGVINFADAVRLVEMRGKFMQEAVPEGTGGMSAIIGLDDASIAKACEESAEGQVVSPVNFNSPGQVVIAGHKEAVERAGAACKAAGAKRALPLPVSVPSHCALMKPAADKLAVELAKITFSAPTVPVVNNVDVKCETDAAAIRDALVRQLYNPVQWTKSVEFIAAQGVEHLYEVGPGKVLTGLTKRIVDTLTASALNEPAALSAALTQ”, for which the “soluble on expression in E. coli” value was “soluble”.
Turning to “SNASDKGKLSLQDVAELIRARACQRVVVMVGAGISTPSGIPDFRSPGSGLYSNLQQYDLPYPEAIFELPFFFHNPKPFFTLAKELYPGNYKPNVTHYFLRLLHDKGLLLRLYTQNIDGLERVSGIPASKLVEAHGTFASATCTVCQRPFPGEDIRADVMADRVPRCPVCTGVVKPDIVFFGEPLPQRFLLHVVDFPMADLLLILGTSLEVEPFASLTEAVRSSVPRLLINRDLVGPLAWHPRSRDVAQLGDVVHGVESLVELLGWTEEMRDLVQRETGKLDGPDK”, the “soluble on expression in E. coli” value is listed as “soluble”.
As for “SNAVYGSEVESKIIEFTIVGADEIIAEKLGISVGDFVYKIIRLRIIHSIPTIMEHTWMPIAVIPGVEASVLEESIYSYIQNKLGLKVGTSVVRVKGIRPDDKEKQFMNLTNQDFLMRVEQVAYLTDGRTFEYSYADHLPETFEFETVITAKSYKEA”, the “soluble on expression in E. coli” value is given as “soluble”.
Turning to “SNAYSIALIIPSLFEKACAHFLPSFQQALNKAGYQLLLGYSDYSIEQEEKLLSTFLESRPAGVVLFGSEHSQRTHQLLEASNTPVLEIAELSSKASYLNIGVDHFEVGKACTRHLIEQGFKNVGFIGARGNHSTLQRQLHGWQSAMIENYLTPDHFLTTHEAPSSQLGAEGLAKLLLRDSSLNALVCSHEEIAIGALFECHRRVLKVPTDIAIICLEGSSMGEHAYPSLTSAEFDYERMGTKAAEKLLHAIKGEPEERPTSMGFKLKRRASTAIN”, the “soluble on expression in E. coli” value was “soluble”.
Regarding “SNLDGSAQDPEKREYSSVCVGREDDIKKSERMTAVVHDREVVIFYHKGEYHAMDIRCYHSGGPLHLGDIEDFDGRPCIVCPWHKYKITLATGEGLYQSINPKDPSAKPKWCSKGIKQRIHTVTVDNGNIYVTLSNEPFKCDSDFYATGDFKVIKSSS”, the “soluble on expression in E. coli” value was “soluble”.
As to “SNPTITRIELSYQDSSIANGTSTTLEVTAIFDNGTNQNITDSTSIVPDSQSVVTIEGNRVRGIASGSSIIKAEYNGLYSEQKITVTPAILNSIQVTSLESGILPKGTNRQFSAIGIFSDGSHQDISNEPLIVWSSSNPDLVRVDDSGLASGINLGTAHIRASFQSKQGAEEMTVGDAVLSQIQVTSNDLNIPLGKKQKLTATGIYSDNSNRDISSSVIWNSSNSTIANIQNNGILETADTGIVTVSASSENIIGSVKLIVTPAALVSISVSPTNSTVAKGLQENFKATGIFTDNSNSDITDQVTWDSSNTDILSISNASDSHGLASTLNQGNVKVTASIGGIQGSTDFKVTQAALTSIEVSPTRTSIAKGLTQKFTAIGIFTDNSKKDITDQVTWNSSSAIVSVSNLDNNKGLGKTNSVGNTTITATLGKVSGNTWFTVVPAV”, the “soluble on expression in E. coli” value is listed as “not soluble”.
For the sequence “SNQDEPRCLFVKDADSQVDLQITFRGFSRPDPQLAASRLLRRVLAGGGCSRLHLNLRERLGIVYSVDAQVAAYDETGCFSIELSTAPENLLTAVEEVLGETRKLAAEPVGAEELRRVRQGYFFDLAYSEDSTFEMQVRYGWGELMGMVKGIDEERAEVEAVDEGTLQAVARRLFAPAALNLVAVGPVTATAKRRIEQLLRRYAKEFPTSSQPPGP”, the “soluble on expression in E. coli” value is “not soluble”.
